From the DeepSol protein solubility set

experiment: soluble on expression in E. coli; label from the status in PepcDB or PDB records

| Sequence | soluble on expression in E. coli |
| --- | --- |
| MGSDKIHHHHHHMGNPSWINVFALVDYRSSSDTLYRVEEGLIPLETFDEINSGDPVVLSSFLNAYRGEDLSLLVIWNHGDWWRGESQKQVKGVAYDFVNLDFFTIKEIKSVLRDSPVTVLGFDACLMGTFEILWELKDCARYVVVSSKEAPGNGWDYSVLRYSKDLSSLLSNIVKRYGEIYGTEYSLSVWDTSKLDEIMLWLDRVAQYMIENNLSPWEFEVERRTAGGSTTELVELGSFAKSLQNSSDVVLREYGEGLYSAIVSARVYGTPDNYTDLTIYLPQNMKNPEYWDDFVALSDFTSESSWDDLIEHWRDKN | not soluble |
| MKSLIDHFDIASAKVQSLVQETLHHADDGELYLEYTESETLLFDNRQLKNGSFHQDMGFGLRVVAGEATGYAHSSELSAAALKRASEAAKTVTYKNHAGPYSVAPQQTNKKLYQPHNPLNAPSFEEKSALLQKIDDYLRAKNDKLHQVTVSLSGSLQHVEILRADGNLVRDIRPLVRLSISVVAAEGNRRENGFYGCGGRQAFSQFISEENWKKAADEALRMALINLEAEAAPAGTFDVVLANGWPGVMLHEAVGHGLEGDFNRKKTSAFSGLLGQQVAAKGVTVVDDGTIPKCRGSLTIDDEGTPSGYNILIENGKLVGFMQDRLNARLMGVNPTGNGRRESYAYAPMPRMTNTIMLGGDKTPEEILSSLKSGIYAVSFGGGQVDITSGKFVFECTEAYRVENGKIVAPIKGATLIGNGPEAMKRITMIGNDSKLDNGIGTCGKAGQSVPVGVGQPHLRINNMTIGGTELT | not soluble |
| GCSDGGREALVAAQRYPDDFNGIIAGAPALNFQVQKTLYHGWMARSNIGPDGKPILLASRLPLLHKAVLAKCDVLDGQIDGLIADPRLCNFDPASVQCTSSVDTTNCLTQQEVAVVKRFYEGPKDPDSGERLTVGGPQPGSELGWAGVFVPITAEQTVYSEKAASEAIRNMVFENNPVAGFDLSTLRFDKSTFDKLRPLHPLYDATNPDLAPFASRGGKLILWHGWADPNVSPLNTLAYHEAVEAKLGKARTEAFESLYMLPGVYHCGAGEGPSVIDLLTPMMAWVESNHAPD | not soluble |
| MEKIRQPTHAGSWYTDNPTKLSSDLEEWLNATGLTKSPDVRGVIAPHAGYSYSGRAAAYAFANIDPTNISRIFLLGPSHHFYTPKCALSTATVYKTPIGNLPVDVEMIKEIRAMGKFGMMDLRVDEAEHSMEMHLPYLAKVFEGNNVKVVPILVGAVSPENEAMYGELLAKYVDDPKNFFSVSSDFCHWGSRFNYMHYDNTHGAIHKSIEALDKKGMDIIETGDPDAFKKYLLEFENTICGRHPISIFLHMLKHSSSKIKINFLRYEQSSQCQTMRDSSVSYASAAAKLET | not soluble |
| MSLNKPFERRSLLRGAGALTAASLAPWAAGCAADDDDALTFFFAANPDELRPRMRVVNEFQRRYPDIKVRALLSGPGVMQQLATFCAGGKCPDVLMAWELTYAELADRGVLLDLNTLLARDQAFAAELKSDSIGALYETFTFNGGQYAFPEQWSGNFLFYNKQLFDDAGVPPPPGSWERPWSFAEFLDAAQALTKQGRSGRDRQWGFVNAWVSFYAAGLFAMNNGVPWSVPRMNPTHLNFDHDGFLEAVQFYADLTNKHKVAPSAAEQQSMSTADLFSVGKAGIALAGHWRYQTFDRADGLDFDVAPLPIGPRGRAACSDIGVTGLAIAATSRRKDQAWEFVKFATGPVGQALIGESRLFVPVLRSAINSHGFANAHRRVGNLAVLSEGPAYSEGLPVTPAWEKIAALMDRYFGPVLRGSRPATSLTGLSQAVDEVLRNEGHHHHHH | not soluble |
| MGSDKIHHHHHHMQFEPALQQGRLVKRYKRFLADIKLADGSEMTIHCPNTGSMRNCLFPGEAVWFSTSANPKRKYAYTWELMGTPNGGFIGIHSGSANALAEEAIHSGIIKELTGYDTLSREVKYGDENSRIDILLQGAQKPDCYIEVKSCTLLEDGQGFFPDAVSLRGQKHLRELMHMANLGHRAVLLFVVQHSEIFSVAPAAHIDHEYANLLKKATLSGVEVLAYRCEMSPTEIRLAQACPVRV | not soluble |
| MGSDKIHHHHHHMEYGHHARPDSKRPLDEGSPAAAGLTSKKANEALTRNRELTTVLVKNLPKSYNQNKVYKYFKHCGPIIHVDVADSLKKNFRFARIEFARYDGALAAITKTHKVVGQNEIIVSHLTECTLWMTNFPPSYTQRNIRDLLQDINVVALSIRLPSLRFNTSRRFAYIDVTSKEDARYCVEKLNGLKIEGYTLVTKVSNPLEKSKRTDSATLEGREIMIRNLSTELLDENLLRESFEGFGSIEKINIPAGQKEHSFNNCCAFMVFENKDSAERALQMNRSLLGNREISVSLADKKPFLERNEVKRLLASRNSKELETLICLFPLSDKVSPSLICQFLQEEIHINEKDIRKILLVSDFNGAIIIFRDSKFAAKMLMILNGSQFQGKVIRSGTINDMKRYYNNQQNHSMKHVKPSCINMMEKGPNLQVKKKIPDKQEQMSNDDFRKMFLGE | not soluble |
| MGSDKIHHHHHHMADKGIIFSDAMVRALLDGTKTQTRRLCAWPNNPNTPQLTYIVACDEPGWFGDEEGEVQFRVPHAQGDRLYVREAWSVRGTYTDVVEVGYRASANRSHTEFVEQWPVGDAIPGKGSWPQWPKYGPSIHMPRWASRMWLQITDVRVQRLQEISAADCRAEGLERGAVGGLLPAYRGSADLEWRIYADDAYHDLWDSLHGESGTRWADNPWVTVYTFDVHKGNIGKAARG | not soluble |
| ASVKDTYTDRLDDWNGIIAGNQYYDSKNDQMAKLNQELEGKVADSLSSISSQADRIYLWEKFSNYKTSANLTATYRKLEEMAKQVTNPSSRYYQDETVVRTVRDSMEWMHKHVYNSEKSIVGNWWDYEIGTPRAINNTLSLMKEYFSDEEIKKYTDVIEKFVPDPEHFRKTTDNPFKALGGNLVDMGRVKVIAGLLRKDDQEISSTIRSIEQVFKLVDQGEGFYQDGSYIDHTNVAYTGAFGNVLIDGLSQLLPVIQKTKNPIDKDKMQTMYHWIDKSFAPLLVNGELMDMSRGRSISRANSEGHVAAVEVLRGIHRIADMSEGETKQRLQSLVKTIVQSDSYYDVFKNLKTYKDISLMQSLLSDAGVASVPRTSYLSAFNKMDKTAMYNAEKGFGFGLSLFSSRTLNYEHMNKENKRGWYTSDGMFYLYNGDLSHYSDGYWPTVNPYKMPGTTETDAKRADSDTGKVLPSAFVGTSKLDDANATATMDFTNWNQTLTAHKSWFMLKDKIAFLGSNIQNTSTDTAATTIDQRKLESSNPYKVYVNDKEASLTEQEKDYPETQSVFLESSDSKKNIGYFFFKKSSISMSKALQKGAWKDINEGQSDKEVENEFLTISQAHKQNGDSYGYMLIPNVDRATFNQMIKELESSLIENNETLQSVYDAKQGVWGIVKYDDSVSTISNQFQVLKRGVYTIRKEGDEYKIAYYNPETQESAPDQEVFKKLEQHHHHHH | soluble |
| GSSANDWQCKTCSNVNWARRSECNMCNTPKYAK | soluble |
| MGSDKIHHHHHHMSRILNTEIIIPIIEKLVKKACYELDDNLMCSFRKAYDKEESKIGKETIKILIDNGEYAKKEQLACCHDTGTCIVIMEIGQHVCWEGKPLKDQVNQGVRQGYENGYLRKSMVADPLERINTNDNTPAILHTEIVDGDRVTITVMPKGGGSENMGTFKTLLPGDGIDGIKDFVLETVRRVGGNPCPPYIIGIGVGGTMDHCSWMAKKALLRPLGEFNAKPLYAQLEAELLEAVNNTGIGPLGMGGRITALGVHVDYYPCHITALPVAINFQCNASRHASEII | not soluble |
| MGKEIQLKPKANVSSYVHFLLNYRNKFKEQQPSTYVGFKEFSRKCSEKWRSISKHEKAKYEALAKLDKARYQEEMMNYVGKRKKRRKRDPQAPRRPPSSFLLFCQDHYAQLKRENPNWSVVQVAKATGKMWSTATDLEKHPYEQRVALLRAKYFEELELYRKQCNARKKYRMSARNRCRGKRVRQS | not soluble |
| MNTDILIGAIAGDIIGSYYEFVPIKSIDFPLFNGSSSHFTDDTIMTIANADWLLTGDSLLGIMQDYGNRYHSSYGSMFYEWLRADNPQPYNSWGNGSAMRVSPIDWAFNTLEETLEAAKQSAEVTHNHPEGIKGAQATAACIYLARTGKSKQEIKEYVETTFGYNLNRTCDDIRPTYHFNESCQGTIPESIIAFLESTDYESAIRLTISLGGDADTMGAITGGIAEAYYKEIPQYIIDEVLKRLSEEFIDIMQRFYRMFISS | not soluble |
| MEVLHKPVLLRESVEFLTENGGKIYVDCTLGGGGHAKEILKKRKDIFLIGIDRDEEAIEIAKENLKEFEGRFSIYKANFKDLDLVLKEEGIDKVDGFLFDLGVSMYQLKGERGFTFQEDQPLDMRMDKEQTLTACKVVNNYPERELIRILKEYGEEKFAVRIAKAIVQRRKKKPIETTGELVDVILSVVPEYYKHGKIHPATRTFQAIRIEVNKELESLKEALEKTPYHFNSKGRLVVITFHSLEDRIVKHFIKEKEKEGIFRIITKKPVTPSEEEIRENPASRSAKLRVAEKI | soluble |
| MKLSPVSAAVLSVLAAGFAHAETEPSHYEEVVVTANRIEQPLSEVAGSVAVLEGETLEKQGKTELYDALNQEPGVSVTGGAGRPQNITIRGMTGNRIAIVRDGIQSADGYGAADINDKYGRNTFSLSNVKQIQVVKGASSTLYGSGAIGGVVIIESKAPEDYLYHRDYYVDAALTYSGISNRYQGNHALAMRHGDGEALLTIDYWQGEETRNFNQDLYNREVDGYNLGFSHHYWLNDALRLKTHLEYFDDYAKRREGTSSIQKDDKWDLVSFYEYQRSQTRLASVGADYTANLSWMDTLEGKFYWRSTENITQTNRLMANDRSGAGILSYRRELRDEGFNDEALGATLNAQKEWQQGEWLHQFAYGMSVDGHDYQRPKSIRRMESSGDDLQADEPFAPAREYRFGVYGQDNLLLGDWTLAAGLRFDAQKLSPKNTDRIHGYKVVTMGSSEWSPSASISYQWHPEWNTYLSYNHGFRAPSYDKAYGASDHSFVPLTPFIIKPNNKLRAETSDSFELGSKYDNGQTQFYVAVFYSIFDNFIDVKQVGYDNATGSVIQQYQNIAGVKTYGAEMSVMHRLDDRWSVENKLGYVDGKDGENQYVRTLTPLEGSVQLNYQRERWDAYSRLNWASAMSRVPTCTTEQGKETECATTTGWVSWDIGLNYQWNAQLSASFNVVNLLDREYTRYQDVAGVTPSDTLYSTEPGRYFTVHAKYVF | not soluble |
| MVRANGAVSLRELARVVQTSEVTVRRDVRALEAEGLLDRRHGGAVLPGGFTRESGFPQKSHLATAEKTAIADLAAGLVEEGEAIVVGAGTTTQELARRLARVPGLTVVTNSLLVAQALAHANRVEVVMTGGTLRGSNYALVGSGAEQSLQGLRVSKAFLSGSGLTAERGLSTSNMLSASVDRALVQAAAEVVVLADHSKLGTDTMFQTVPTDVITRLVTDESPGHDDRAATELQALADQGVQIAVAGASGGGTANGTGASGAPGGDSVGRQQRRDVPLPGPRRQVPGAAGAGLRSATALGEQGGGAERARVADMRRRLEHHHHHH | not soluble |
| MGSDKIHHHHHHMKVILHIGAHRCATRSFQNYMTRKSDTLSQYGIAFMGPERTRNGLLHGIQPGAISVTGRDPMARARGRIALQLAGLQNAGTASVVISDASMLQPLEQCFALGALYPAAGEHLARLDHAFDGAVSDVMLNIRSPEMFWASALAVRLEHSLRMPNAATLSRIAEATRSWRDVIQDIYCAMPGARIRVFPYEVFATQPEAQLSAVTGVDCPHARGAFRLNASARLPELRAELPPRLAKLLPEDEGRWMPFSEAEAARLRESYYDDMMWLVGGADGLAELVEDPNKADATATPPAPDLVVQEDLTRGRMHDPDTGRLAGTG | not soluble |
| MSWKFEEKSPIYAQIAQHVMMQIISQEIKSGDQLPTVREYAEIAGVNPNTMQRAFTELEREGMVYSQRTAGRFVTDDQKLIARKRRELAISELESFITNMTKMGFSHTEIIPVLTSFLKEDSQ | not soluble |
